In patent US20260055211A1:

Legend:
[1] = molecular target: anti-PR3 autoantibodies in PR3+ANCA patient serum; assay: blocking ELISA: 1:100 serum pre-incubated 30 min with 0 to 100 µg/ml m1, c-ANCA ELISA kit; patient samples 1, 7, 24 and 58
[2] = molecular target: anti-PR3 autoantibodies in PR3+ANCA patient serum; assay: depletion with m1-coated magnetic beads (1 mg beads, 1:50 serum, 10 min), flow-through measured by c-ANCA ELISA; five patient sera
[3] = molecular target: anti-PR3 autoantibodies in PR3+ANCA patient serum; assay: blocking ELISA: 1:100 serum pre-incubated 30 min with 0 to 600 µg/ml m1, c-ANCA ELISA kit; 14 out of 15 patient sera of low, medium and high titer
[4] = molecular target: anti-PR3 autoantibodies in PR3+ANCA patient serum; assay: competition ELISA, low-titer serum ANCA 93 (1:100) pre-incubated with the binder, unblocked anti-PR3 IgG on a c-ANCA (PR3) ELISA kit, % of untreated
[5] = molecular target: anti-PR3 autoantibodies in PR3+ANCA patient serum; assay: competition ELISA: serum PR3+ ANCA 1 (1:100) pre-incubated with the binder, unblocked anti-PR3 IgG measured on a c-ANCA (PR3) ELISA kit, % of untreated
[6] = molecular target: anti-PR3 autoantibodies in PR3+ANCA patient serum; assay: competition ELISA, medium-titer serum ANCA 65 (1:100) pre-incubated with the binder, unblocked anti-PR3 IgG on a c-ANCA (PR3) ELISA kit, % of untreated
[7] = molecular target: anti-PR3 autoantibodies in PR3+ANCA patient serum; assay: competition ELISA, medium-titer serum ANCA 97 (1:100) pre-incubated with the binder, unblocked anti-PR3 IgG on a c-ANCA (PR3) ELISA kit, % of untreated
[8] = molecular target: anti-PR3 autoantibodies in PR3+ANCA patient serum; assay: pull-down with binder-coated magnetic beads, serum PR3+ ANCA 4; 100 - (anti-PR3 IgG after binder beads / after control-protein beads x 100), c-ANCA ELISA
[9] = molecular target: anti-PR3 autoantibodies in PR3+ANCA patient serum; assay: pull-down with binder-coated magnetic beads, serum PR3+ ANCA 60; 100 - (anti-PR3 IgG after binder beads / after control-protein beads x 100), c-ANCA ELISA
[10] = molecular target: anti-PR3 autoantibodies in PR3+ANCA patient serum; assay: pull-down with binder-coated magnetic beads, serum PR3+ ANCA 91; 100 - (anti-PR3 IgG after binder beads / after control-protein beads x 100), c-ANCA ELISA
[11] = molecular target: anti-PR3 autoantibodies in PR3+ANCA patient serum; assay: pull-down with binder-coated magnetic beads, serum PR3+ ANCA 93; 100 - (anti-PR3 IgG after binder beads / after control-protein beads x 100), c-ANCA ELISA
[12] = molecular target: anti-PR3 autoantibodies in PR3+ANCA patient serum; assay: pull-down with binder-coated magnetic beads, serum PR3+ ANCA 97; 100 - (anti-PR3 IgG after binder beads / after control-protein beads x 100), c-ANCA ELISA

B1: PR3 glycoengineered polypeptide (protein)
chain: IVGGHEAQPHSRPYMASLQMRGNPGSHFCGGTLIHPSFVLTAAHCLRDIPQRLVNVVLGAHNVRTQEPTQQHFSVAQVFLNNYDAENKLNDVLLIQLSSPANLSASVATVQLPQQDQPVPHGTQCLAMGWGRVGAHDPPAQVLQELNVTVVTAACRPHNICTFVPRRKAGICFGDAGGPLICDGIIQGIDSFVIWGCATRAAPDFFTRVALYVDWIRSTLRRVEAKGRPGGGGANSTAPAPAPAHHHHHHHHHH
modifications: N-glycans (81.5% A2GalNAc2, biantennary GalNAc-terminated) at the native sites N129 and N174 (numbering of UniProt P24158) and at the Asn of the C-terminal glycotag; 80-90% of molecules fully …
residual binding percentage (residual autoantibodies against untreated serum) [1]: < 50%
percentage of depletion of anti-PR3 autoantibodies [2]: > 50%
residual binding percentage (residual autoantibodies against untreated serum) [3]: < 50%
IC50 (read off the curve) [4]: 0.5 µg/mL
IC50 (read off the curve) [5]: 0.4 µg/mL
IC50 (read off the curve) [6]: 0.4 µg/mL
IC50 (read off the curve) [7]: 0.2 µg/mL
% of depletion [8]: 81%
% of depletion [9]: 91%
% of depletion [10]: 53%
% of depletion [11]: 88%
% of depletion [12]: 51%
